One protein from article doi:10.1101/2024.09.05.611430 (bioRxiv, 2024) can be followed below.

Usually stoichiometry N stands for a count of units in the complex or per binding partner.

Several values for one entry are separate records, joined by “and”; a condition that tells them apart may be missing. Identical values can stand only once.

This data set deals with the molecule itself. Kind of data set: cryo-EM structure.

B1: Mpn444 (Mycoplasma pneumoniae lipoprotein, recombinant, without the N-terminal signal sequence, aa 28-1325) (natural protein, UniProt P75334 28-1325, looked up)
chain: CAQPTASTVEGLFKPSSAFADRTDFSLSSILQKSLINRESFNQYLAMRLAPVLRTFYEDNYDTDIKERLNGFTADTDNAFVSQEQNLRNQFRENYLVHLQTDIFDNTGGNQAAWKLRDVNNKIIDDFISRIFAKNFVEYVQDGVGPLTKPTKSLIENTSNFKNIKLQPKFVNKNAKLKINNDAVYAAIQDKLLDQFITNENPNLVSRVVFTNETPVDGFDNYFNTKVIQSPTPSYQFQVFNKYNQQSGGTKGANGFNLLASNLKSYKNDQSKGIDIPNKFSSDSGGKLLLKASDMFDTFDPSFSAAFIQGYLALQKKSKGADSKEVDSLIKDKSIIENFFVDNNTQAAAAARAASSSSEGTIQLKTASDGGGTTQSTVHKTDLVKIFGDKDVFAGEYKQQIGNTNANQTGGGGSGGGGGTSTGSSTGSSTETTTGNSSKAVVDLIEVKKDSSSQPDYILSRGKDGIHLMAVDGGSHYLTESGRDVAKQKKFLLFRALQTKYGLVDTDTTYDFKLFDEVKKYFDTNRILFLFEALLDLSSDTNNKDNFLSYPQFKKFADSIKSIEKDLKELVQAHYKQAVFNETAVAENKVTLKLAERNQPFIDNERNNQIEQNGLAAKLPYEQDAKTGHYNDLGNYYKDIIDNVDKKGTSTVKTTSSNTGQTKNFSEEVVSKLKDNKKKVEEAAKKHVEALKVFTIPSPLYSQVILVQTKLSFTPESTSLGLNLALNNYLTSTELQNSIKLSYFQEDEAFKKIIDITNLTFSQQSGGTGGTNGNNNLTADNWKIFKETYLLDLFESQAQKSIFGHVGSSDKNSSTKTGIEGVLDTLYSSLNLEERLDSDDVIDYLSYLYTAHWLLKDNLKNYKQSLQSKLSRTSNAFLVWSVDSEKNKNDSQSTLSSTASSTSNTGLIQLRSVVSLAQNQAAGQGGDNNSDITQTEVKNPNFVFGSSVYDWTNSKTPEVNRAADDTSSFFYTKSSSSSTGAAQSSATVLRSLNQASGMTTKTAKNRYGFRGIVTSSTSGSLPEAVSRRLFKQFVNQTEKGVKVGGQMLITTAKSGKATLVLKQQADDAESTTNNAYKGALFSFGSMDNLKNIINGIQTQTEFDALYNHLTSDLNIDVTGVDKNKTLTEQKTSLTSFVDSNFKQSTQSAQRGDTSARSARSATVQIKKTQEDNQNTNYKDVFSRFDGYIGDNKVEEKNYTSYQFLSDGGKYHATFVKQVNLDDVEKIGTDSLKQEDSSKDKRLNLSLEEFLAAIALEALDPNNQTQAINALISGNKKGLVKVGDFRIFSSISAQWVRRF
As for B1, the “stoichiometry N” value was 3 and 2.
